From PMC4354923, “FTO is necessary for the induction of leptin resistance by high-fat feeding” (Molecular Metabolism, 2015)

Target: Myc-tagged full length FTO (UniProt Q9C0B1 1-505)
Test: cell-based or functional assay

Chain of Myc-tagged full length FTO (Q9C0B1 whole entry): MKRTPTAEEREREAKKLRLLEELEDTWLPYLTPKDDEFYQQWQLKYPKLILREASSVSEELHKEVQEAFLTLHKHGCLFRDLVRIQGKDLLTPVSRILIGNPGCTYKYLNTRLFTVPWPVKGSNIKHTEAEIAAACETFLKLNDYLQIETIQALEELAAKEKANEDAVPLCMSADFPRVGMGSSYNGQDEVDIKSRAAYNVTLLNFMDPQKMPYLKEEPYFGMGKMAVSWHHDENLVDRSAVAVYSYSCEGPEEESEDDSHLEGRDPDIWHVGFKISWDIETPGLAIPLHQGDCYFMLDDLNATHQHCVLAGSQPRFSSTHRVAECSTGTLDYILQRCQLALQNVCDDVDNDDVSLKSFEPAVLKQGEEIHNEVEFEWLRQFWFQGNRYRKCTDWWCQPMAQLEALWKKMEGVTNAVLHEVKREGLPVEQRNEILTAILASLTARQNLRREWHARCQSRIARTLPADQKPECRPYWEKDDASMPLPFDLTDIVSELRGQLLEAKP

B1: Thyroid receptor interacting protein 4 (TRIP4), in HEK293 cell extract (natural protein, human (endogenous in HEK293), UniProt Q15650 1-581, looked up)
chain: MAVAGAVSGEPLVHWCTQQLRKTFGLDVSEEIIQYVLSIESAEEIREYVTDLLQGNEGKKGQFIEELITKWQKNDQELISDPLQQCFKKDEILDGQKSGDHLKRGRKKGRNRQEVPAFTEPDTTAEVKTPFDLAKAQENSNSVKKKTKFVNLYTREGQDRLAVLLPGRHPCDCLGQKHKLINNCLICGRIVCEQEGSGPCLFCGTLVCTHEEQDILQRDSNKSQKLLKKLMSGVENSGKVDISTKDLLPHQELRIKSGLEKAIKHKDKLLEFDRTSIRRTQVIDDESDYFASDSNQWLSKLERETLQKREEELRELRHASRLSKKVTIDFAGRKILEEENSLAEYHSRLDETIQAIANGTLNQPLTKLDRSSEEPLGVLVNPNMYQSPPQWVDHTGAASQKKAFRSSGFGLEFNSFQHQLRIQDQEFQEGFDGGWCLSVHQPWASLLVRGIKRVEGRSWYTPHRGRLWIAATAKKPSPQEVSELQATYRLLRGKDVEFPNDYPSGCLLGCVDLIDCLSQKQFKEQFPDISQESDSPFVFICKNPQEMVVKFPIKGNPKIWKLDSKIHQGAKKGLMKQNKAV
- NFκB-responsive firefly luciferase reporter (normalised to renilla) in Fto null MEFs co-transfected with a TRIP4 expression construct and Myc-tagged full length FTO: ≤ 5 fold
